Laboratory results from patent US20250043302A1, “MUTATED HYDROXYPHENYLPYRUVATE DIOXYGENASE POLYPEPTIDE, AND CODING GENE AND USE THEREOF” (BEIJING DABEINONG BIOTECHNOLOGY CO., LTD., priority 2021, published 2025).
Substitutions are numbered along the chain they refer to. Numbers in names are those of the source.

B1: HvHPPDm-F372A-02: nucleotide sequence encoding Hordeum vulgare HPPD with F372A; vector DBN11763 (nucleic acid)
DNA: ATGCCGCCGACGCCCACCACCCCAGCAGCTACCGGAGCTGCGGCTGCAGTAACCCCTGAGCATGCTCGGCCCCACAGGATGGTGAGGTTTAATCCAAGATCAGATCGTTTTCATACACTCTCGTTCCACCATGTTGAGTTCTGGTGCGCCGACGCGGCTTCAGCGGCCGGGAGGTTCGCCTTCGCGCTGGGGGCCCCTCTTGCCGCGCGTAGTGATTTGTCTACTGGGAATTCAGCGCACGCGTCCCAGCTTCTCCGAAGCGGCAGTCTCGCCTTTCTCTTCACTGCACCATATGCAAATGGATGTGATGCAGCAACTGCTTCCCTGCCGAGCTTTTCTGCGGATGCCGCGAGGCGATTCAGTGCTGACCATGGGATCGCCGTCCGGTCAGTTGCTCTTAGAGTGGCTGATGCTGCTGAGGCATTCAGGGCTTCAAGGCGTCGTGGTGCACGCCCGGCGTTTGCCCCGGTTGATCTTGGGCGGGGGTTTGCTTTTGCAGAGGTGGAGCTGTACGGCGACGTGGTGCTCCGATTTGTTTCTCACCCGGACGGCACTGATGTGCCCTTCTTGCCAGGATTTGAAGGTGTGACCAACCCTGATGCCGTGGATTATGGACTCACAAGATTTGATCATGTGGTTGGCAATGTTCCTGAATTGGCACCTGCTGCCGCTTACATCGCAGGTTTTACTGGCTTCCATGAATTTGCTGAATTCACGGCGGAGGATGTTGGTACAACTGAGTCAGGGCTGAACAGTGTTGTTTTAGCCAACAACTCAGAAGGAGTTCTCCTTCCCTTGAATGAACCTGTTCATGGAACCAAGCGCCGCTCCCAAATTCAAACATTTCTTGAGCACCACGGCGGCCCTGGTGTTCAACATATTGCTGTCGCCTCTAGCGACGTCCTGCGTACATTACGCAAGATGAGGGCTCGGTCCGCAATGGGTGGTTTCGACTTCCTCCCTCCACCATTGCCAAAATATTATGAAGGCGTCAGAAGACTTGCAGGAGATGTCCTCTCTGAAGCTCAGATCAAGGAGTGCCAAGAACTTGGCGTCTTGGTTGATAGAGATGACCAAGGAGTACTTCTGCAGATAGCCACAAAACCCGTTGGTGACAGGCCAACTCTTTTCCTGGAGATGATTCAGAGAATTGGCTGCATGGAGAAAGATGAAAGAGGCGAGGAGTACCAGAAGGGTGGTTGTGGAGGCTTTGGAAAAGGAAACTTCTCAGAGCTGTTCAAGTCCATAGAAGATTACGAGAAAAGTCTAGAAGCCAAGCAGTCTGCTGCAGTGCAAGGTTCCTGA
modifications: HvHPPDm-F372A-02 Nucleotide Sequence
notes: vector DBN11763
B2: HvHPPDm-F383W-02: nucleotide sequence encoding Hordeum vulgare HPPD with F383W; vector DBN11764 (nucleic acid)
DNA: B1 DNA with G1096T, C1097T, C1098T, T1130G, C1131G
modifications: HvHPPDm-F383W-02 Nucleotide Sequence
notes: vector DBN11764

Key:
Format in all cases: in vivo
[1] = system: Arabidopsis thaliana T1 plants; experiment: Topramezone tolerance of transgenic Arabidopsis thaliana T1 plants (spray, bleached leaf area grade, damage score); conditions: 7 DAT, Table 4; for Classification and statistics of the grade of pesticide damage: Grade 0 / Classification and statistics of the grade of pesticide damage: Grade 1 / Classification and statistics of the grade of pesticide damage: Grade 2 / Classification and statistics of the grade of pesticide damage: Grade 3: number of plants; for Scores: pesticide damage score 0-100
Procedure, shortened: (§1)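 Damage graded 0–3 from the proportion of bleached leaf area 7 days after spraying. Plants were glufosinate-selected T1 lines, 18 days after sowing, plus vector and wild-type controls. Rates: mesotrione 52.5–420, isoxaflutole 35–280, topramezone 25–200 g ai/ha, with water (0×).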

[2] = system: Arabidopsis thaliana T1 plants; experiment: Mesotrione tolerance of transgenic Arabidopsis thaliana T1 plants (spray, bleached leaf area grade, damage score); set-up: Scores: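 damage score 0-100 computed as Σ(N×S)/(T×M)×100 over grades 0-3 with higher meaning more damage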; conditions: Arabidopsis thaliana T1 plants; for Grade 0 (classification and statistics of the grade of pesticide damage; number of plants) / Grade 1 (classification and statistics of the grade of pesticide damage; number of plants) / Grade 2 (classification and statistics of the grade of pesticide damage; number of plants) / Grade 3 (classification and statistics of the grade of pesticide damage; number of plants): 16 plants
Procedure, shortened: as §1

[3] = system: Arabidopsis thaliana T1 plants; experiment: Isoxaflutole tolerance of transgenic Arabidopsis thaliana T1 plants (spray, bleached leaf area grade, damage score); set-up: Scores (pesticide damage): scale not given here; conditions: spray, Arabidopsis thaliana T1 plants; for Classification and statistics of the grade of pesticide damage: Grade 0 (number of plants) / Classification and statistics of the grade of pesticide damage: Grade 1 (number of plants) / Classification and statistics of the grade of pesticide damage: Grade 2 (number of plants) / Classification and statistics of the grade of pesticide damage: Grade 3 (number of plants): 16 plants
Procedure, shortened: as §1

[4] = isoxaflutole 35 g ai/ha (0.5x field concentration)
[5] = isoxaflutole 70 g ai/ha (1x field concentration)

Molecule	Classification and statistics of the grade of pesticide damage: Grade 0 ([1]; topramezone 25 g ai/ha (1×))	Classification and statistics of the grade of pesticide damage: Grade 1 ([1]; topramezone 25 g ai/ha (1×))	Classification and statistics of the grade of pesticide damage: Grade 2 ([1]; topramezone 25 g ai/ha (1×))	Classification and statistics of the grade of pesticide damage: Grade 3 ([1]; topramezone 25 g ai/ha (1×))	Classification and statistics of the grade of pesticide damage: Grade 0 ([1]; topramezone 100 g ai/ha (4×))	Classification and statistics of the grade of pesticide damage: Grade 1 ([1]; topramezone 100 g ai/ha (4×))	Classification and statistics of the grade of pesticide damage: Grade 2 ([1]; topramezone 100 g ai/ha (4×))	Classification and statistics of the grade of pesticide damage: Grade 3 ([1]; topramezone 100 g ai/ha (4×))	Scores ([1]; topramezone 25 g ai/ha (1×))	Scores ([1]; topramezone 100 g ai/ha (4×))	Resistance evaluation ([1]; topramezone 25 g ai/ha (1×))	Resistance evaluation ([1]; topramezone 100 g ai/ha (4×))	Resistance evaluation ([2]; mesotrione 52.5 g ai/ha)	Scores ([2]; mesotrione 52.5 g ai/ha)	Grade 0 (classification and statistics of the grade of pesticide damage; number of plants) ([2]; mesotrione 52.5 g ai/ha)	Grade 1 (classification and statistics of the grade of pesticide damage; number of plants) ([2]; mesotrione 52.5 g ai/ha)	Grade 2 (classification and statistics of the grade of pesticide damage; number of plants) ([2]; mesotrione 52.5 g ai/ha)	Grade 3 (classification and statistics of the grade of pesticide damage; number of plants) ([2]; mesotrione 52.5 g ai/ha)	Resistance evaluation ([2]; mesotrione 105 g ai/ha)	Scores ([2]; mesotrione 105 g ai/ha)	also measured
B1	15	1	0	0	8	8	0	0	2	17	highly	moderately	Highly resistant	15	9	7	0	0	Poorly resistant	56	Grade 0 (classification and statistics of the grade of pesticide damage; number of plants) ([2]; mesotrione 105 g ai/ha): 0; Grade 1 (classification and statistics of the grade of pesticide damage; number of plants) ([2]; mesotrione 105 g ai/ha): 9; Grade 2 (classification and statistics of the grade of pesticide damage; number of plants) ([2]; mesotrione 105 g ai/ha): 3; Grade 3 (classification and statistics of the grade of pesticide damage; number of plants) ([2]; mesotrione 105 g ai/ha): 4; Resistance evaluation [3, 4]: Moderately; Scores (pesticide damage) [3, 4]: 33; Classification and statistics of the grade of pesticide damage: Grade 0 (number of plants) [3, 4]: 1; Classification and statistics of the grade of pesticide damage: Grade 1 (number of plants) [3, 4]: 14; Classification and statistics of the grade of pesticide damage: Grade 2 (number of plants) [3, 4]: 1; Classification and statistics of the grade of pesticide damage: Grade 3 (number of plants) [3, 4]: 0; Resistance evaluation [3, 5]: Poorly; Scores (pesticide damage) [3, 5]: 44; Classification and statistics of the grade of pesticide damage: Grade 0 (number of plants) [3, 5]: 0; Classification and statistics of the grade of pesticide damage: Grade 1 (number of plants) [3, 5]: 12; Classification and statistics of the grade of pesticide damage: Grade 2 (number of plants) [3, 5]: 3; Classification and statistics of the grade of pesticide damage: Grade 3 (number of plants) [3, 5]: 1
B2	4	6	5	1	0	0	0	16	40	100	poorly	non-resistant (non-resistant plants (scores 68-100))	Moderately	33	2	12	2	0	Non-resistant	100	Grade 0 (classification and statistics of the grade of pesticide damage; number of plants) ([2]; mesotrione 105 g ai/ha): 0; Grade 1 (classification and statistics of the grade of pesticide damage; number of plants) ([2]; mesotrione 105 g ai/ha): 0; Grade 2 (classification and statistics of the grade of pesticide damage; number of plants) ([2]; mesotrione 105 g ai/ha): 0; Grade 3 (classification and statistics of the grade of pesticide damage; number of plants) ([2]; mesotrione 105 g ai/ha): 16; Resistance evaluation [3, 4]: Poorly; Scores (pesticide damage) [3, 4]: 67; Classification and statistics of the grade of pesticide damage: Grade 0 (number of plants) [3, 4]: 0; Classification and statistics of the grade of pesticide damage: Grade 1 (number of plants) [3, 4]: 1; Classification and statistics of the grade of pesticide damage: Grade 2 (number of plants) [3, 4]: 14; Classification and statistics of the grade of pesticide damage: Grade 3 (number of plants) [3, 4]: 1; Resistance evaluation [3, 5]: Non-resistant; Scores (pesticide damage) [3, 5]: 100; Classification and statistics of the grade of pesticide damage: Grade 0 (number of plants) [3, 5]: 0; Classification and statistics of the grade of pesticide damage: Grade 1 (number of plants) [3, 5]: 0; Classification and statistics of the grade of pesticide damage: Grade 2 (number of plants) [3, 5]: 0; Classification and statistics of the grade of pesticide damage: Grade 3 (number of plants) [3, 5]: 16
